# From US20220025021A1 (BETH ISRAEL DEACONESS MEDICAL CENTER, published 2022)
# Positions count from the first letter of the chain named.
# B1: MS-103 (antibody)
# VH: not shown
# VL: DIVLTQSPLSLSVTPGEPASISCKSSHSLIHGDRNNYLAWYVQKPGRSPQLLIYLASSRASGVPDRFSGSGSDKDFTLKISRVETEDVGTYYCMQGRESPWTFGQGTKVDIKRTVAAPSVFIFPPSDEQLKSGTASVVCLLNNFYPREAKVQWKVDNALQSGNSQESVTEQDSKDSTYSLSSTLTLSKADYEKHKVYACEVTHQGLSSPVTKSFNRGEC
# B2: MS-112 (antibody)
# VH: not shown
# VL: B1 VL with I2F, L9H, D73G, T85A
# B3: MS-118 (antibody)
# VH: not shown
# VL: B1 VL with D73G, T85A
# B4: MS-111 (antibody)
# VH: not shown
# VL: B1 VL with I2F, P18S, D73G, T85A
# B5: MS-106 (antibody)
# VH: not shown
# VL: B1 VL with L9H, D73G
# B6: MS-108 (antibody)
# VH: not shown
# VL: B1 VL with L9H, P18S, D73G, T85A
# B7: MS-113 (antibody)
# VH: not shown
# VL: B1 VL with D73G
# B8: MS-105 (antibody)
# VH: not shown
# VL: B1 VL with P18S, T85A
# B9: MS-115 (antibody)
# VH: not shown
# VL: B1 VL with P18S, D73G, T85A
# B10: MS-114 (antibody)
# VH: not shown
# VL: B1 VL with T85A
# B11: MS-104 (antibody)
# VH: not shown
# VL: B1 VL with P18S, D73G
# B12: MS-107 (antibody)
# VH: not shown
# VL: B1 VL with L9H, T85A
# B13: MS-117 (antibody)
# VH: not shown
# VL: B1 VL with I2F, D73G, T85A
# B14: MS-110 (antibody)
# VH: not shown
# VL: B1 VL with I2F, T85A
# B15: MS-116 (antibody)
# VH: not shown
# VL: B1 VL with L9H, D73G, T85A
# B16: MS-109 (antibody)
# VH: not shown
# VL: B1 VL with I2F, D73G
# How the values were obtained:
# Assay in all cases: cell-based or functional assay
# [1] = biological target: HIV-1 pseudovirus SC05.8C11.2344 (envelope glycoprotein) (HIV-1)
# [2] = biological target: HIV-1 pseudovirus X1193_c1 (envelope glycoprotein) (HIV-1)
# [3] = biological target: HIV-1 pseudovirus Ce1176_A3 (envelope glycoprotein) (HIV-1)
# [4] = biological target: HIV-1 pseudovirus 6952.v1.c20 (envelope glycoprotein) (HIV-1)
# [5] = biological target: HIV-1 pseudovirus 263-8 (envelope glycoprotein) (HIV-1)
# [6] = biological target: HIV-1 pseudovirus AC10.0.29 (envelope glycoprotein) (HIV-1)
Binder,neutralization IC50 [1] [µg/mL],neutralization IC80 [1] [µg/mL],neutralization IC50 [2] [µg/mL],neutralization IC80 [2] [µg/mL],neutralization IC50 [3] [µg/mL],neutralization IC80 [3] [µg/mL],neutralization IC50 [4] [µg/mL],neutralization IC80 [4] [µg/mL],neutralization IC50 [5] [µg/mL],neutralization IC80 [5] [µg/mL],neutralization IC50 [6] [µg/mL],neutralization IC80 [6] [µg/mL]
B1,0.707,2.44,0.112,0.502,0.172,3.13,0.485,5.95,0.018,0.07,0.07,0.334
B2,0.501,1.68,0.069,0.293,0.068,2.03,0.16,1.47,0.013,0.037,0.056,0.262
B3,0.449,1.54,0.085,0.287,0.26,8.12,0.392,12.2,0.011,0.039,0.056,0.273
B4,0.496,1.69,0.109,0.352,0.082,3.12,0.213,2.1,0.016,0.045,0.061,0.258
B5,0.411,1.44,0.093,0.394,0.099,3.43,0.216,3.8,0.011,0.039,0.062,0.299
B6,0.428,1.45,0.083,0.545,0.117,3.84,0.323,3.37,0.012,0.042,0.045,0.216
B7,0.573,1.94,0.098,0.421,0.182,6.05,0.351,5.03,0.018,0.052,0.052,0.245
B8,0.794,2.73,0.067,0.417,0.172,3.39,0.706,9.49,0.017,0.062,0.051,0.394
B9,0.436,1.51,0.08,0.274,0.18,6.3,0.303,4.7,0.013,0.037,0.049,0.249
B10,0.81,3.86,0.124,0.404,0.139,7.39,0.146,1.37,0.018,0.066,0.066,0.313
B11,0.512,1.73,0.063,0.388,0.218,6.11,0.457,8.61,0.014,0.052,0.041,0.208
B12,0.658,2.28,0.13,0.57,0.147,3.99,0.457,8.87,0.016,0.055,0.079,0.397
B13,0.432,1.48,0.064,0.226,0.113,2.17,0.208,3.84,0.01,0.029,0.051,0.252
B14,0.914,3.1,0.106,0.677,0.097,2.5,0.195,2.12,0.01,0.038,0.076,0.285
B15,0.456,1.62,0.064,0.222,0.145,3.12,0.341,7.51,0.011,0.042,0.052,0.258
B16,0.546,1.85,0.073,0.467,0.078,5.83,0.188,1.74,0.01,0.033,0.04,0.199
